Reference: PMC2213499 (The Journal of Experimental Medicine, 2000)

Target: Complement C1q (human, UniProt P02745 23-245; P02746 28-253; P02747 29-245)
Test: ELISA

Sequence of Complement C1q (P02745 23-245, chain 1 of 3): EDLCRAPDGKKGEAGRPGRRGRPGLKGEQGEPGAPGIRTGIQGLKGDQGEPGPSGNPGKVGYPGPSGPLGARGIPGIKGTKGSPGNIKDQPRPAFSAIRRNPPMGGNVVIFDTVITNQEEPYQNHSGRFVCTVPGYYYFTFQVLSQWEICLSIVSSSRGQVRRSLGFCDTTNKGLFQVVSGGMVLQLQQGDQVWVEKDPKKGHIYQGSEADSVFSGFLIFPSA
Sequence of Complement C1q (P02746 28-253, chain 2 of 3): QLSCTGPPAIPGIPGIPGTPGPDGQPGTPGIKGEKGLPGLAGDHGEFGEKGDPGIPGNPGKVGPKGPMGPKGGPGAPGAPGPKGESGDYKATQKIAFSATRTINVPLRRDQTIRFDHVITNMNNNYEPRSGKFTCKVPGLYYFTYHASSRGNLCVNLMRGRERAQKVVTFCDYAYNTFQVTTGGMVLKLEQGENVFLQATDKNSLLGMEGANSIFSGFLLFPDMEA
Sequence of Complement C1q (P02747 29-245, chain 3 of 3): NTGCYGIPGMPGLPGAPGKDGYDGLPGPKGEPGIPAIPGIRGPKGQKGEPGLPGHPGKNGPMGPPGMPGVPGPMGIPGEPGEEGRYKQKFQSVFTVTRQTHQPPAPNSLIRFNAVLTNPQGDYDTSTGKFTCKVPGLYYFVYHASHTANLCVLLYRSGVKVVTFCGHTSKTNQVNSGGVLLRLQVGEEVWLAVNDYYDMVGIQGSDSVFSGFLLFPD

B1: Recombinant soluble complement receptor 1 (sCR1) (domain or fragment)
chain: not shown
modifications: 125I in the radioligand assays with immobilised MBL; unlabelled elsewhere
  binding result: binds
